{"source": "paper PMC4340663", "key": {"[1]": {"molecular_target": "KNH1144 SOSIP gp140 trimer with the hexaarginine (R6) mutation (HIV-1 subtype A isolate KNH1144)", "experiment": "native gel or EMSA"}, "[2]": {"molecular_target": "KNH1144 SOSIP gp140 trimer with the hexaarginine (R6) mutation (HIV-1 subtype A isolate KNH1144)", "experiment": "negative-stain electron microscopy"}}}
{"substance": "KNH1144 SOSIP gp140 trimer with the hexaarginine (R6) mutation (complex)", "values": [{"measurement": "stoichiometry N", "setting": "[1]", "result": 3}]}
{"substance": "four-domain soluble CD4 (domain or fragment)", "values": [{"measurement": "stoichiometry N (molecules per trimer)", "setting": "[1]", "result": 3}, {"measurement": "stoichiometry N (molecules per trimer)", "setting": "[2]", "result": 3}]}
{"substance": "two-domain soluble CD4 (domain or fragment)", "values": [{"measurement": "stoichiometry N (molecules per trimer)", "setting": "[1]", "result": 3}]}
